# Measured values reported in the supplement of paper PMC7125110.
# ± gives the standard error. For some assays here: Fewer inactive variants are shown than the library holds.
# B1: glmS ribozyme (parent)
# chain: AUAAAAGCGCCAGAACUACAGAAAUGUAGUUGACGAGGAGGAGGUUUAUCGAAUUUUCGGCGGAUGCCUCCAAA
# Legend:
# Details in all cases: with glucosamine-6-phosphate
# [1] = variants of: B1; assay: kcat; higher = faster cleavage; RNA array
# In short: (§1)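 kcat and KM were obtained from weighted Michaelis–Menten fits across concentrations of kobs values. Those came from one- or two-exponential decay fits to per-tile medians normalised to baseline and to non-cleaving reference variants. The variants were barcoded ribozymes transcribed in situ by E. coli RNA polymerase on sequenced MiSeq chips and tracked through a hybridised Cy3 probe at 37 °C, with 40 μM to 10 mM glucosamine-6-phosphate in HEPES/KCl/Mg(OAc)2 buffer flowed in.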
# [2] = variants of: B1; assay: KM; higher = weaker cofactor use; RNA array
# In short: as §1
# [3] = variants of: B1; assay: self-cleavage kobs at 160 uM GlcN6P; higher = faster cleavage; RNA array
# In short: as §1
# [4] = variants of: B1; assay: self-cleavage kobs at 640 uM GlcN6P; higher = faster cleavage; RNA array
# In short: as §1
# [5] = variants of: B1; assay: self-cleavage kobs at 2500 uM GlcN6P; higher = faster cleavage; RNA array
# In short: as §1
# [6] = variants of: B1; assay: self-cleavage kobs at 10000 uM GlcN6P; higher = faster cleavage; RNA array
# In short: as §1
# [7] = variants of: B1; assay: self-cleavage kobs at 40 uM GlcN6P; higher = faster cleavage; RNA array
# In short: as §1
Variant,kcat [1] [s⁻¹],KM [2] [µM],self-cleavage kobs at 160 uM GlcN6P [3] [s⁻¹],self-cleavage kobs at 640 uM GlcN6P [4] [s⁻¹],self-cleavage kobs at 2500 uM GlcN6P [5] [s⁻¹],self-cleavage kobs at 10000 uM GlcN6P [6] [s⁻¹],self-cleavage kobs at 40 uM GlcN6P [7] [s⁻¹]
G13U U55C,0.000878 ± 0.00013,3970 ± 1200,2.79e-05 ± 1.3e-05,0.000149 ± 3.4e-05,0.000304 ± 5.4e-05,0.000642 ± 7e-05,
A14C A39G,0.0127 ± 0.0026,3770 ± 970,0.000352 ± 0.00017,0.00155 ± 0.0003,0.0051 ± 0.00078,0.0095 ± 0.0016,0.000147 ± 1.6e-05
A14C A39U,0.00308 ± 0.00063,2440 ± 670,0.000162 ± 1.9e-05,0.000605 ± 6.5e-05,0.00174 ± 0.00021,0.00242 ± 0.00026,6.46e-05 ± 6.9e-06
A14C G29A,0.000725 ± 5.3e-05,2290 ± 270,4.05e-05 ± 1.5e-05,0.000166 ± 2.4e-05,0.000389 ± 9.3e-05,0.00058 ± 9.2e-05,
A14G A15C,0.0193 ± 0.0062,584 ± 270,0.00312 ± 0.00073,0.0155 ± 0.0029,0.012 ± 0.0039,0.0199 ± 0.0053,0.00141 ± 0.00023
G13U U65G C67G,7.46e-05 ± 2.9e-06,808 ± 170,,,6.05e-05 ± 2.3e-05,6.81e-05 ± 1.5e-05,
G13U G29U U31C,1.48e-05 ± 3.5e-06,,,,,,< 1e-05
A14G G40U,0.00991 ± 0.0013,1350 ± 250,0.00117 ± 0.00023,0.00267 ± 0.00043,0.00713 ± 0.0011,0.00879 ± 0.0013,0.000302 ± 4.1e-05
A14U A36U,< 1e-05,,< 1e-05,,< 1e-05,< 1e-05,
A14U A64G,0.00805 ± 0.003,2740 ± 1300,0.000391 ± 4.2e-05,0.00143 ± 0.00016,0.00635 ± 0.00079,0.00568 ± 0.00075,0.000177 ± 2.5e-05
G13U A42C U69G,0.00178 ± 0.00081,,,0.00028 ± 5.9e-05,0.000852 ± 0.00026,0.00141 ± 0.00021,8.5e-05 ± 2.1e-05
G13U G41C,0.000161 ± 1.8e-05,,< 1e-05,< 1e-05,,,< 1e-05
G13U G41U,7.91e-05 ± 6.7e-06,4150 ± 890,,,3.07e-05 ± 8.6e-06,5.57e-05 ± 8.2e-06,
G13C G41U,3.06e-05 ± 9.2e-06,,,,,,
